From article PMC3032639

Tests used:
[1] = molecular target: TraB C-terminal domain (TraBCT) (E. coli (plasmid pKM101)); assay: SEC
[2] = molecular target: TraB C-terminal domain (TraBCT) (E. coli (plasmid pKM101)); assay: SAXS; beamline ID02 (ESRF), buffer GFsol, 20°C; TraBCT 2.1-8.2 mg/ml, LvhB4 2-8.9 mg/ml; molecular mass from forward scattering I(0), absolute calibration with water; self-association
[3] = molecular target: TraB N-terminal domain (TraBNT), membrane-extracted form (E. coli (plasmid pKM101)) (UniProt P41067); assay: SEC
[4] = molecular target: TraB N-terminal domain (TraBNT), membrane-extracted form (E. coli (plasmid pKM101)) (UniProt P41067); assay: SAXS; beamline X33 (EMBL-Hamburg), buffer GFmb; TraBFL 3-13.5 mg/ml, TraBNT 1.3-8.2 mg/ml; molecular mass from forward scattering I(0), calibrated with BSA; self-association
[5] = molecular target: TraB full-length (TraBFL), the VirB4 homolog encoded by the E. coli pKM101 plasmid, membrane-extracted form (E. coli (plasmid pKM101)) (UniProt P41067); assay: SEC
[6] = molecular target: TraB full-length (TraBFL), the VirB4 homolog encoded by the E. coli pKM101 plasmid, membrane-extracted form (E. coli (plasmid pKM101)) (UniProt P41067); assay: SAXS; beamline X33 (EMBL-Hamburg), buffer GFmb; TraBFL 3-13.5 mg/ml, TraBNT 1.3-8.2 mg/ml; molecular mass from forward scattering I(0), calibrated with BSA; self-association

## TraB C-terminal domain (TraBCT) (domain or fragment)
[1]
  stoichiometry N: 2
[2]
  stoichiometry N: 2

## TraB N-terminal domain (TraBNT), membrane-extracted form (from UniProt P41067 1-442) (domain or fragment)
[3]
  stoichiometry N: 2
[4]
  stoichiometry N: 2

## TraB full-length (TraBFL), the VirB4 homolog encoded by the E. coli pKM101 plasmid, membrane-extracted form (from UniProt P41067 1-475) (natural protein)
[5]
  stoichiometry N: 2
[6]
  stoichiometry N: 2
